Laboratory results reported in patent US6416987B1, “Mutants of thymidylate synthase and uses thereof” (Sloan Kettering Institute for Cancer Research, priority 1997, dated 2002).
Entries after “also recorded” stand apart in the source; their conditions may differ.

Test system: Mouse TS-negative cells (FSthy21)
Assay: Rescue of TS-negative cells by transfection of human TS cDNAs
Format: cell-based
Conditions: for TS catalytic function / complementation of growth of TS-negative cells: selective medium lacking thymidine; for FM3A TS cells surviving by transfection: selective medium without thymidine
Description: Mouse TS-negative cells (FSthy21) were transfected with a plasmid (pcDNA3hTS*) encoding wild-type or a various mutant human TS enzyme by standard DOTAP transfection procedures. The host cells are deficient in TS, which are unable to survive without exogenous thymidine. […] In contrast, cells were unable to survive with transfection of other 11 human TS variants. For each surviving transfectant, at least 12 individual clones were isolated by soft agar or limiting dilution in 96-well plates. Those clones were expanded to cell lines by growth in normal media. Three cell clones for each transfectant were randomly selected for drug sensitivity assay.

| Molecule | TS catalytic function / complementation of growth of TS-negative cells | FM3A TS cells surviving by transfection |
| --- | --- | --- |
| G52S: human TS mutant Gly52→Ser (protein) MPVAGSELPRRPLPPAAQERDAEPRPPHGELQYLGQIQHILRCGVRKDDRTSTGTLSVFGMQARYSLRDEFPLLTTKRVFWKGVLEELLWFIKGSTNAKELSSKGVKIWDANGSRDFLDSLGFSTREEGDLGPVYGFQWRHFGAEYRDMESDYSGQGVDQLQRVIDTIKTNPDDRRIIMCAWNPRDLPLMALPPCHALCQFYVVNSELSCQLYQRSGDMGLGVPFNIASYALLTYMIAHITGLKPGDFIHTLGDAHIYLNHIEPLKIQLQREPRPFPKLRILRKVGKIDDFKAEDFQIEGYNPHPTIKMEMAV | able to complement growth; also recorded: retain TS catalytic function; also recorded: able to allow growth | yes |
| F225S: human TS mutant Phe225→Ser (protein) MPVAGSELPRRPLPPAAQERDAEPRPPHGELQYLGQIQHILRCGVRKDDRTGTGTLSVFGMQARYSLRDEFPLLTTKRVFWKGVLEELLWFIKGSTNAKELSSKGVKIWDANGSRDFLDSLGFSTREEGDLGPVYGFQWRHFGAEYRDMESDYSGQGVDQLQRVIDTIKTNPDDRRIIMCAWNPRDLPLMALPPCHALCQFYVVNSELSCQLYQRSGDMGLGVPSNIASYALLTYMIAHITGLKPGDFIHTLGDAHIYLNHIEPLKIQLQREPRPFPKLRILRKVGKIDDFKAEDFQIEGYNPHPTIKMEMAV | severely diminished TS catalytic activity | no |
| R50C: human TS mutant Arg50→Cys (protein) MPVAGSELPRRPLPPAAQERDAEPRPPHGELQYLGQIQHILRCGVRKDDCTGTGTLSVFGMQARYSLRDEFPLLTTKRVFWKGVLEELLWFIKGSTNAKELSSKGVKIWDANGSRDFLDSLGFSTREEGDLGPVYGFQWRHFGAEYRDMESDYSGQGVDQLQRVIDTIKTNPDDRRIIMCAWNPRDLPLMALPPCHALCQFYVVNSELSCQLYQRSGDMGLGVPFNIASYALLTYMIAHITGLKPGDFIHTLGDAHIYLNHIEPLKIQLQREPRPFPKLRILRKVGKIDDFKAEDFQIEGYNPHPTIKMEMAV | catalytically inactive | no |
| L221S: human TS mutant Leu221→Ser (protein) MPVAGSELPRRPLPPAAQERDAEPRPPHGELQYLGQIQHILRCGVRKDDRTGTGTLSVFGMQARYSLRDEFPLLTTKRVFWKGVLEELLWFIKGSTNAKELSSKGVKIWDANGSRDFLDSLGFSTREEGDLGPVYGFQWRHFGAEYRDMESDYSGQGVDQLQRVIDTIKTNPDDRRIIMCAWNPRDLPLMALPPCHALCQFYVVNSELSCQLYQRSGDMGSGVPFNIASYALLTYMIAHITGLKPGDFIHTLGDAHIYLNHIEPLKIQLQREPRPFPKLRILRKVGKIDDFKAEDFQIEGYNPHPTIKMEMAV | able to complement growth | yes |
| F225L: human TS mutant Phe225→Leu (protein) MPVAGSELPRRPLPPAAQERDAEPRPPHGELQYLGQIQHILRCGVRKDDRTGTGTLSVFGMQARYSLRDEFPLLTTKRVFWKGVLEELLWFIKGSTNAKELSSKGVKIWDANGSRDFLDSLGFSTREEGDLGPVYGFQWRHFGAEYRDMESDYSGQGVDQLQRVIDTIKTNPDDRRIIMCAWNPRDLPLMALPPCHALCQFYVVNSELSCQLYQRSGDMGLGVPLNIASYALLTYMIAHITGLKPGDFIHTLGDAHIYLNHIEPLKIQLQREPRPFPKLRILRKVGKIDDFKAEDFQIEGYNPHPTIKMEMAV | able to complement growth; also recorded: active enzymes | yes |
| I108F: human TS mutant Ile108→Phe (protein) MPVAGSELPRRPLPPAAQERDAEPRPPHGELQYLGQIQHILRCGVRKDDRTGTGTLSVFGMQARYSLRDEFPLLTTKRVFWKGVLEELLWFIKGSTNAKELSSKGVKFWDANGSRDFLDSLGFSTREEGDLGPVYGFQWRHFGAEYRDMESDYSGQGVDQLQRVIDTIKTNPDDRRIIMCAWNPRDLPLMALPPCHALCQFYVVNSELSCQLYQRSGDMGLGVPFNIASYALLTYMIAHITGLKPGDFIHTLGDAHIYLNHIEPLKIQLQREPRPFPKLRILRKVGKIDDFKAEDFQIEGYNPHPTIKMEMAV | able to complement growth; also recorded: functional | yes |
| K47E: human TS mutant Lys47→Glu (protein) MPVAGSELPRRPLPPAAQERDAEPRPPHGELQYLGQIQHILRCGVREDDRTGTGTLSVFGMQARYSLRDEFPLLTTKRVFWKGVLEELLWFIKGSTNAKELSSKGVKIWDANGSRDFLDSLGFSTREEGDLGPVYGFQWRHFGAEYRDMESDYSGQGVDQLQRVIDTIKTNPDDRRIIMCAWNPRDLPLMALPPCHALCQFYVVNSELSCQLYQRSGDMGLGVPFNIASYALLTYMIAHITGLKPGDFIHTLGDAHIYLNHIEPLKIQLQREPRPFPKLRILRKVGKIDDFKAEDFQIEGYNPHPTIKMEMAV | able to complement growth; also recorded: retain TS catalytic function; also recorded: able to allow growth | yes |
| L221A: human TS mutant Leu221→Ala (protein) MPVAGSELPRRPLPPAAQERDAEPRPPHGELQYLGQIQHILRCGVRKDDRTGTGTLSVFGMQARYSLRDEFPLLTTKRVFWKGVLEELLWFIKGSTNAKELSSKGVKIWDANGSRDFLDSLGFSTREEGDLGPVYGFQWRHFGAEYRDMESDYSGQGVDQLQRVIDTIKTNPDDRRIIMCAWNPRDLPLMALPPCHALCQFYVVNSELSCQLYQRSGDMGAGVPFNIASYALLTYMIAHITGLKPGDFIHTLGDAHIYLNHIEPLKIQLQREPRPFPKLRILRKVGKIDDFKAEDFQIEGYNPHPTIKMEMAV | able to complement growth | yes |
| F225Y: human TS mutant Phe225→Tyr (protein) MPVAGSELPRRPLPPAAQERDAEPRPPHGELQYLGQIQHILRCGVRKDDRTGTGTLSVFGMQARYSLRDEFPLLTTKRVFWKGVLEELLWFIKGSTNAKELSSKGVKIWDANGSRDFLDSLGFSTREEGDLGPVYGFQWRHFGAEYRDMESDYSGQGVDQLQRVIDTIKTNPDDRRIIMCAWNPRDLPLMALPPCHALCQFYVVNSELSCQLYQRSGDMGLGVPYNIASYALLTYMIAHITGLKPGDFIHTLGDAHIYLNHIEPLKIQLQREPRPFPKLRILRKVGKIDDFKAEDFQIEGYNPHPTIKMEMAV | able to complement growth; also recorded: active enzymes | yes |
| T51A: human TS mutant Thr51→Ala (protein) MPVAGSELPRRPLPPAAQERDAEPRPPHGELQYLGQIQHILRCGVRKDDRAGTGTLSVFGMQARYSLRDEFPLLTTKRVFWKGVLEELLWFIKGSTNAKELSSKGVKIWDANGSRDFLDSLGFSTREEGDLGPVYGFQWRHFGAEYRDMESDYSGQGVDQLQRVIDTIKTNPDDRRIIMCAWNPRDLPLMALPPCHALCQFYVVNSELSCQLYQRSGDMGLGVPFNIASYALLTYMIAHITGLKPGDFIHTLGDAHIYLNHIEPLKIQLQREPRPFPKLRILRKVGKIDDFKAEDFQIEGYNPHPTIKMEMAV | not tolerated | no |
| D49N: human TS mutant Asp49→Asn (protein) MPVAGSELPRRPLPPAAQERDAEPRPPHGELQYLGQIQHILRCGVRKDNRTGTGTLSVFGMQARYSLRDEFPLLTTKRVFWKGVLEELLWFIKGSTNAKELSSKGVKIWDANGSRDFLDSLGFSTREEGDLGPVYGFQWRHFGAEYRDMESDYSGQGVDQLQRVIDTIKTNPDDRRIIMCAWNPRDLPLMALPPCHALCQFYVVNSELSCQLYQRSGDMGLGVPFNIASYALLTYMIAHITGLKPGDFIHTLGDAHIYLNHIEPLKIQLQREPRPFPKLRILRKVGKIDDFKAEDFQIEGYNPHPTIKMEMAV | not tolerated | no |
| L221F: human TS mutant Leu221→Phe (protein) MPVAGSELPRRPLPPAAQERDAEPRPPHGELQYLGQIQHILRCGVRKDDRTGTGTLSVFGMQARYSLRDEFPLLTTKRVFWKGVLEELLWFIKGSTNAKELSSKGVKIWDANGSRDFLDSLGFSTREEGDLGPVYGFQWRHFGAEYRDMESDYSGQGVDQLQRVIDTIKTNPDDRRIIMCAWNPRDLPLMALPPCHALCQFYVVNSELSCQLYQRSGDMGFGVPFNIASYALLTYMIAHITGLKPGDFIHTLGDAHIYLNHIEPLKIQLQREPRPFPKLRILRKVGKIDDFKAEDFQIEGYNPHPTIKMEMAV | inactive | no |
| L221I: human TS mutant Leu221→Ile (protein) MPVAGSELPRRPLPPAAQERDAEPRPPHGELQYLGQIQHILRCGVRKDDRTGTGTLSVFGMQARYSLRDEFPLLTTKRVFWKGVLEELLWFIKGSTNAKELSSKGVKIWDANGSRDFLDSLGFSTREEGDLGPVYGFQWRHFGAEYRDMESDYSGQGVDQLQRVIDTIKTNPDDRRIIMCAWNPRDLPLMALPPCHALCQFYVVNSELSCQLYQRSGDMGIGVPFNIASYALLTYMIAHITGLKPGDFIHTLGDAHIYLNHIEPLKIQLQREPRPFPKLRILRKVGKIDDFKAEDFQIEGYNPHPTIKMEMAV | able to complement growth | yes |
